Values quoted from earlier work, collected in publication PMC12571840.

Assays:
CRHR1 (Homo sapiens) = CRHR1 (Homo sapiens) (UniProt P34998)
CRHR2 (Homo sapiens) = CRHR2 (Homo sapiens) (UniProt Q13324)
Sequence of UniProt Q13324 (Q13324 20-411): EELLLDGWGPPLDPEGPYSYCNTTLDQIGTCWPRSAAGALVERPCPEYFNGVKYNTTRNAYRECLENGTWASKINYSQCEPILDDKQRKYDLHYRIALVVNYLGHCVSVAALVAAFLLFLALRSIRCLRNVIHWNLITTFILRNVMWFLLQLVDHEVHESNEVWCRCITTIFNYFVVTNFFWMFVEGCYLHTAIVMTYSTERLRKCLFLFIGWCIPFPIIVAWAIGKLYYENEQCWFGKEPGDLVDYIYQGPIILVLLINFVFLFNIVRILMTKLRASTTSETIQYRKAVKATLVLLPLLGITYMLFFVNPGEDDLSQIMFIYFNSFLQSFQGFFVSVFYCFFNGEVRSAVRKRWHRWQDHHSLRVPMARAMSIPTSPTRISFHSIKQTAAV

Sequence of UniProt P34998 (P34998 24-415): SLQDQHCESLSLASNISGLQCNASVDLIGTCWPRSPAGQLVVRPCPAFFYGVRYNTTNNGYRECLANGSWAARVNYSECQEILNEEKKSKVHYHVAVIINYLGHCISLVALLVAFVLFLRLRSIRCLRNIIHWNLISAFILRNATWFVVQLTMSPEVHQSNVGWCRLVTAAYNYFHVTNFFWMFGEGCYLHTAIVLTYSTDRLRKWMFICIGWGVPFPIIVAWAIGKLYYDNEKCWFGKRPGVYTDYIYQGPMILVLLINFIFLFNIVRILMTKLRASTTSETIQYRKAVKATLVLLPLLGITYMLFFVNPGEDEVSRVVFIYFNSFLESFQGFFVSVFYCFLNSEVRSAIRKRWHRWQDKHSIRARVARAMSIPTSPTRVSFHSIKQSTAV

- Ki (CRHR1 (Homo sapiens)): 0.95 nM
- Ki (CRHR2 (Homo sapiens)): 13 nM
Substance: CRH (from UniProt P06850)
